Assay in all cases: radiolabeled-peptide inhibition, purified HLA-DR
What all share (conditions): remark: other sources report otherwise

Test [1] has as its target T1, HLA-DR DRB1*0101 (human).
T1 chain 1: not shown
T1 chain 2: not shown

Test [2] addresses T2, HLA-DR DRB1*0401 (human).
T2 chain 1: not shown
T2 chain 2: not shown

For test [3], the target named is T3, HLA-DR DRB4*0101 (human).
T3 chain 1: not shown
T3 chain 2: not shown

For test [4], the target named is T4, HLA-DR DRB1*0404 (human).
T4 chain 1: not shown
T4 chain 2: not shown

In test [5] the target is T5, HLA-DR DRB1*0701 (human).
T5 chain 1: not shown
T5 chain 2: not shown

Test [6] has as its target HLA-DR DRB1*1501 (human).
Test [7] deals with T6, HLA-DR DRB1*1101 (human).
T6 chain 1: not shown
T6 chain 2: not shown

B1: 9019.0055 (peptide)
peptide: SLTLQGLGISWLGLR
The IC50 is the concentration that inhibits the measured activity by half. A higher IC50 goes with lower potency. In the case of B1, the IC50 is 93 nM in test [1]; 143 nM in test [2]; 22 nM in test [3]; 110 nM in test [4]; 3100 nM in test [5]; 50 nM in test [6]. Further, in test [7], the IC50 is 6310 nM.

For the origin of these results see US20100310640A1.
